From paper PMC5413510, “An Analysis of Trafficking Receptors Shows that CD44 and P-Selectin Glycoprotein Ligand-1 Collectively Control the Migration of Activated Human T-Cells” (Frontiers in Immunology, 2017)

B2: recombinant mouse E-selectin/CD62E Fc chimera (E-Ig) (Fc fusion, UniProt Q00690 22-557, looked up)
chain: WYYNASSELMTYDEASAYCQRDYTHLVAIQNKEEINYLNSNLKHSPSYYWIGIRKVNNVWIWVGTGKPLTEEAQNWAPGEPNNKQRNEDCVEIYIQRTKDSGMWNDERCNKKKLALCYTASCTNASCSGHGECIETINSYTCKCHPGFLGPNCEQAVTCKPQEHPDYGSLNCSHPFGPFSYNSSCSFGCKRGYLPSSMETTVRCTSSGEWSAPAPACHVVECEALTHPAHGIRKCSSNPGSYPWNTTCTFDCVEGYRRVGAQNLQCTSSGIWDNETPSCKAVTCDAIPQPQNGFVSCSHSTAGELAFKSSCNFTCEQSFTLQGPAQVECSAQGQWTPQIPVCKAVQCEALSAPQQGNMKCLPSASGPFQNGSSCEFSCEEGFELKGSRRLQCGPRGEWDSKKPTCSAVKCDDVPRPQNGVMECAHATTGEFTYKSSCAFQCNEGFSLHGSAQLECTSQGKWTQEVPSCQVVQCPSLDVPGKMNMSCSGTAVFGTVCEFTCPDDWTLNGSAVLTCGATGRWSGMPPTCEAPVSPTRP
notes: E-selectin (CD62E), mouse; Mouse is named only in the flow cytometry methods; also called E-selectin-hIg chimera; recombinant E-selectin–Ig chimera; source: bought: R&D
B3: P-selectin glycoprotein ligand-1 (PSGL-1) from activated human T-cells (natural protein, human (endogenous in activated T-cells), UniProt Q14242 42-412, looked up)
chain: QATEYEYLDYDFLPETEPPEMLRNSTDTTPLTGPGTPESTTVEPAARRSTGLDAGGAVTELTTELANMGNLSTDSAAMEIQTTQPAATEAQTTQPVPTEAQTTPLAATEAQTTRLTATEAQTTPLAATEAQTTPPAATEAQTTQPTGLEAQTTAPAAMEAQTTAPAAMEAQTTPPAAMEAQTTQTTAMEAQTTAPEATEAQTTQPTATEAQTTPLAAMEALSTEPSATEALSMEPTTKRGLFIPFSVSSVTHKGIPMAASNLSVNYPVGAPDHISVKQCLLAILILALVATIFFVCTVVLAVRLSRKGHMYPVRNYSPTEMVCISSLLPDGGEGPSATANGGLSKAKSPGLTPEPREDREGDDLTLHSFLP
modifications: O-glycans
notes: P-selectin glycoprotein ligand-1 (CD162), human; also called CD162

Columns and labels:
[1] = biological target: CD44/HCELL from activated human T-cells (human (endogenous in activated T-cells))
[2] = biological target: CD44/HCELL from activated human T-cells (human (endogenous in activated T-cells)); test: SPR; BIAcore CM5 chip; CD44 and PSGL-1 captured from activated T-cell lysate by immobilised mAbs; 10 E-Ig concentrations (0.456-466.7 nM) injected at 30 ul/min in 150 mM NaCl running buffer; KD from steady-state fit; apparent koff from the buffer wash after the last injection; apparent kon calculated (Eq. 1 in Supplementary Material); isotype control subtracted
[3] = biological target: B3; test: as above; settings: both partners purified
[4] = biological target: B2; test: as above; settings: both partners purified

B1: E-selectin on CHO cells expressing E-selectin (CHO-E) (receptor)
chain: WSYNTSTEAMTYDEASAYCQQRYTHLVAIQNKEEIEYLNSILSYSPSYYWIGIRKVNNVWVWVGTQKPLTEEAKNWAPGEPNNRQKDEDCVEIYIKREKDVGMWNDERCSKKKLALCYTAACTNTSCSGHGECVETINNYTCKCDPGFSGLKCEQIVNCTALESPEHGSLVCSHPLGNFSYNSSCSISCDRGYLPSSMETMQCMSSGEWSAPIPACNVVECDAVTNPANGFVECFQNPGSFPWNTTCTFDCEEGFELMGAQSLQCTSSGNWDNEKPTCKAVTCRAVRQPQNGSVRCSHSPAGEFTFKSSCNFTCEEGFMLQGPAQVECTTQGQWTQQIPVCEAFQCTALSNPERGYMNCLPSASGSFRYGSSCEFSCEQGFVLKGSKRLQCGPTGEWDNEKPTCEAVRCDAVHQPPKGLVRCAHSPIGEFTYKSSCAFSCEEGFELHGSTQLECTSQGQWTEEVPSCQVVKCSSLAVPGKINMSCSGEPVFGTVCKFACPEGWTLNGSAARTCGATGHWSGLLPTCEAPTESNIPLVAGLSAAGLSLLTLAPFLLWLRKCLRKAKKFVPASSCQSLESDGSYQKPSYIL
B1 was tested, and the average velocity of CHO-E cells rolling over the immuno-purified ligand on a blot (blot rolling assay, 0.5 dyn cm^-2, 2 mM Ca2+) [1] was 3.3.

In the case of B2, the Kd [2] is reported as 777 nM, the koff [2] is reported as 4.9e-05 s⁻¹ and the kon [2] is reported as 61 M⁻¹ s⁻¹. For the same binder, the “stoichiometry N” value [3] was ≥ 2 E-selectin dimers per PSGL-1 dimer.

B3 showed a Kd [4] of 467 nM, a koff [4] of 2.5e-05 s⁻¹ and a kon [4] of 52 M⁻¹ s⁻¹.
